Results: US20180037644A1 (Pfizer, published 2018)

Experiments:
human IL-33 (mm2) [1] = target: T1, human IL-33 (mm2) (human, UniProt O95760 112-270); test: SPR, Fab captured by anti-human Fab kit, IL-33 in solution
T1 construct: Variant in which all four cysteine residues are serine; the entry carries an N-terminal Met and a C-terminal His6; Biotinylated in some assays; also called hIL-33 (mm2); huIL-33 (mm2)
T1 chain: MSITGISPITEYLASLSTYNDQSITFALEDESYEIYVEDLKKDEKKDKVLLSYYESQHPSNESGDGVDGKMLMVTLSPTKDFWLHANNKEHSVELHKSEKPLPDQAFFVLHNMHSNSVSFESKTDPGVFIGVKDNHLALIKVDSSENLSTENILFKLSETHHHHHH
Method: (§1) Fab fragment affinity was measured by two methods, surface plasmon resonance using a BIAcore instrument, with either Fab or IL-33 captured on the chip, and solution equilibrium affinity measurements using a KinExA instrument, with both Fab and IL-33 in solution.
(§2) Surface plasmon resonance experiments were conducted in two formats.

[2] = target: T2, human IL-33 WT, reduced with DTT (human, UniProt O95760 112-270); test: SPR, IL-33 amine-coupled to CM5, Fab in solution, 37 C
T2 construct: Wild-type cysteines, FLAG tag in the entry; reduced with 3 mM DTT before use; also called huIL33 wt; hu IL-33 (WT + DTT)
T2 sequence: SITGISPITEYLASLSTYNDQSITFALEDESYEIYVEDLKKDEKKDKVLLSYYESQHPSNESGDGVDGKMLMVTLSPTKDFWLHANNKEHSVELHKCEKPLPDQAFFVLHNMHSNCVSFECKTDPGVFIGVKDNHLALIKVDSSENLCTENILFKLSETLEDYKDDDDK
Method: Biacore kinetic assays were conducted at 37° C. at a collection rate of 1 Hz on a Biacore T200 instrument (GE Healthcare). Human IL33 (mm2), cynomolgus monkey IL-33, and reduced huIL33 wt were covalently coupled to a CM5 sensor chip (catalogue number BR100530, GE Healthcare) using an amine coupling kit (catalogue number BR100050, GE Healthcare) according to the manufacturer's protocol. […] The dilution and running buffer was HBS-EP+(10 mM HEPES pH 7.4, 0.15M NaCl, 3 mM EDTA, 0.05% P-20). Rate constants and affinities were determined by fitting the resulting sensorgram data to a 1:1 model in Biacore T200 Evaluation software version 1.0 (GE Healthcare).

human IL-33 WT (R&D) [3] = target: T3, human IL-33 WT (R&D) (human, UniProt O95760 112-270); test: SPR, Fab captured by anti-human Fab kit, reduced IL-33 (R&D) in solution; captured Fab, reduced WT IL-33 in solution
T3 construct: R&D Systems Cat. No. 3625-IL/CF, wild-type cysteines; DTT pretreatment in some assays is said under assay or readout; also called IL-33 (R&D); hIL-33 (R&D)
T3 sequence: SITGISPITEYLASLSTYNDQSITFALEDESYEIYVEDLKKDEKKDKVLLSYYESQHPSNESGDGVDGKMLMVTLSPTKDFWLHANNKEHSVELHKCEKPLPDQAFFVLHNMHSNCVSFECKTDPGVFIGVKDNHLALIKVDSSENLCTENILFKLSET

human IL-33 (mm2) [4] = target: T1, human IL-33 (mm2); test: SPR, biotinylated IL-33 on streptavidin sensor, Fab in solution
Method: as §1, §2

human IL-33 WT (R&D) [5] = target: T3, human IL-33 WT (R&D); test: SPR, Fab captured by anti-human Fab kit, reduced IL-33 (R&D) in solution
Method: as §1, §2

- Kd (human IL-33 (mm2) [1]): 250 pM
- koff (human IL-33 (mm2) [1]): 0.000301 s⁻¹
- kon (human IL-33 (mm2) [1]): 1.38e+06 M⁻¹ s⁻¹
- Kd [2]: 19.1 pM
- koff [2]: 5.79e-05 s⁻¹
- kon [2]: 3.05e+06 M⁻¹ s⁻¹
- kon (human IL-33 WT (R&D) [3]): 2.06e+06 M⁻¹ s⁻¹
- Kd (human IL-33 (mm2) [4]): 3.06 pM
- koff (human IL-33 (mm2) [4]): 1.68e-05 s⁻¹
- Kd (human IL-33 WT (R&D) [5]): 290 pM
- koff (human IL-33 WT (R&D) [5]): 0.000377 s⁻¹
B1: 7E8 CDR graft Fab (Fab, V domains shown)
VH: EVQLVESGGGLVQPGGSLRLSCAASGFTFSSYWMYWVRQAPGKGLEWVASITPNGGNTYYPDSVKGRFTISRDNAKNSLYLQMNSLRAEDTAVYYCARGHYYYTSYSLGYWGQGTLVTVSS
VL: DIQMTQSPSSLSASVGDRVTITCKASQNINKHLDWYQQKPGKAPKLLIYFTNNLQTGVPSRFSGSGSGTDFTLTISSLQPEDFATYYCFQYNNGWTFGGGTKVEIKR
notes: also called 7E8 Fab; CDR grafted-7E8 Fab
